Key:
[1] = target: vasoinhibin of 123 residues (first 123 residues of human PRL) (human); test: non-reducing Western blot; conditioned media of transduced HEK293T/17 cells run without reduction and immunoblotted for PRL; disulfide-bonded dimers seen as bands of ~18 kDa and ~28 kDa
[2] = target: vasoinhibin of 79 residues (first 79 residues of human PRL) (human); test: as above

Row | stoichiometry N [1] | stoichiometry N [2] | Substance
1 | 2 |  | vasoinhibin of 123 residues (first 123 residues of human PRL) (domain or fragment)
2 |  | 2 | vasoinhibin of 79 residues (first 79 residues of human PRL) (domain or fragment)

— article PMC6244167
